Results taken from article doi:10.1101/2025.06.08.658476.

Tests used:
[1] = molecular target: TycB1(S5Bpa)-His6, TycB1[COM^A-C-A-PCP] with p-benzoylphenylalanine at Ser5 (construct 25), holo-form; assay: cross-linking
[2] = molecular target: TycB1-His6, TycB1[COM^A-C-A-PCP] (construct 17), holo-form

| T-crosslink intensity relative to WT TycA [1] [%] | D-Phe-L-Pro-DKP production with TycB1, normalised to wild-type TycA [2] [%] | L-crosslink intensity relative to WT TycA [1] [%] | Substance |
| --- | --- | --- | --- |
| 46 |  |  | SBP-TycA P1063A, mutation in the lid (construct 24), holo-form (enzyme) |
| 33 |  |  | SBP-TycA with the single V1059 in the seam region deleted (construct 23), holo-form (enzyme) |
| 5 | 9 | 38 | SBP-TycA ΔV1059 to K1069, seam and lid deletion mutant (construct 19), holo-form (enzyme) |
